From patent US20060154864, “Transcript factor and an Akt substrate related to transcriptional action of insulin and applications of same” (Emory University, published 2006)

Tests used:
[1] = test system: IRE-BP1 C-terminal fragment (3.4-kb cDNA) (Rattus norvegicus); experiment: cell_activity
NFkB p50 = NFkB p50 (UniProt P19838 P19838:1-433); experiment: EMSA; supershifted by p50 antibody; settings: tags: E. coli-expressed; chain copies: 2; label: 32P
NFkB p50, sequence (P19838 1-433, one chain of several): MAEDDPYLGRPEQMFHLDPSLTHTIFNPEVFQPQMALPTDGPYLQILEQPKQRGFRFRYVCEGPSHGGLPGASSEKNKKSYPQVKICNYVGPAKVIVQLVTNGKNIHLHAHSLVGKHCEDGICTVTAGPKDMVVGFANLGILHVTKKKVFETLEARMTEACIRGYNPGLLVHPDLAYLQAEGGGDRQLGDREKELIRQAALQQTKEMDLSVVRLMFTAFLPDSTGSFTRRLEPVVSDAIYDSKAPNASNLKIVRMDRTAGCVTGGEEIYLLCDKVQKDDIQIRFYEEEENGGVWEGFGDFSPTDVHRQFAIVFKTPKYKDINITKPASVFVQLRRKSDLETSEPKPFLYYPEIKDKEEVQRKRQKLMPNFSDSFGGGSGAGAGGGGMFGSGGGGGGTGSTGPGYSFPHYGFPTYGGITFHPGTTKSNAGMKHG

Question: For “AATTCAAGGGTATCCAGGAAAGTCTCCTTCAAG (double strand) [IGFBP-3 IRE]”, which activity ([1]; COS-7 luciferase, 2-fold on control vector) is on record?
Answer: Its activity is 14 fold.

Question: Which activity ([1]; with insulin, vs 24.7% vector alone, no basal effect, SEQ 50 inferred) does the source give for “GTTTGTTTTGCTAGT (double strand) [IGFBP-1 IRE]” here?
Answer: The activity was 63.2 % decrease.

Question: How did the activity ([1]; COS-7 luciferase, basal, 3.5-fold with insulin) turn out when “GCCTCATTATTCCTGCCCACCAAT (double strand) [IGF-1 IRE]” was run?
Answer: The activity was 4.7 fold.

B1: IGFBP-3 IRE (dsDNA)
DNA 1: AATTCAAGGGTATCCAGGAAAGTCTCCTTCAAG
DNA 2: CTTGAAGGAGACTTTCCTGGATACCCTTGAATT
Question: Does B1 bind (NFkB p50)?
Answer: Result: binds
